The values below come from patent US20200325187A1 (Genentech, published 2020).

In test [1] the target is T1, hVEGF-A (human, UniProt P15692-4 27-191, limits assumed). The test is described as follows: cell-based or functional assay.
For test [2], the target named is T1, hVEGF-A. Briefly: cell-based or functional assay. The source holds these as a separate data set.
Test [3] deals with T2, hVEGF-A (8-109) (human, UniProt P15692 214-315).
T2 sequence (looked up): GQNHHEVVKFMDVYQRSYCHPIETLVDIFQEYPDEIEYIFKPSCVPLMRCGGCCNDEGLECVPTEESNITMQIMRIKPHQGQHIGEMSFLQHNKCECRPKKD
The test is described as follows: spot phage ELISA. The protocol:
(§1) After four rounds of binding selection, individual phage clones were picked and inoculated into 450 μl 2YT media containing 50 µg/ml Carbenecillin and M13-KO7 helper phage in 96-well blocks, which were grown at 37° C. overnight. […] The plates were washed and bound phage was detected with anti-M13-HRP followed by TMB substrate. In these assays, phage binding to BSA alone was tested in parallel to assess background binding. […] Positive clones were subjected to DNA sequence analysis.
On the technique in general: ELISA stands for enzyme-linked immunosorbent assay.

Test [4] concerns the target T1, hVEGF-A. Briefly: KDR-VEGF competition ELISA.
The target of test [5] is T1, hVEGF-A. Briefly: phage competition ELISA, soluble CKP.
Test [6] addresses T1, hVEGF-A. The test is described as follows: phage competition ELISA, soluble CKP. The source holds these as a separate data set.
The target in test [7] is T2, hVEGF-A (8-109). Briefly: spot phage ELISA. The protocol:
as §1
This is another data set of the same source.

The target of test [8] is T1, hVEGF-A. Briefly: SPR. The protocol: Depending on the format of the assay either a streptavidin sensor (SA) or a dextran-coated (CM5) sensor was utilized as described below.
Reaction was then quenched by addition of 10 molar excess of Glycine pH 8.0 and the sample was buffer exchanged into PBS using an Amicon 0.5 mL 3000 MWCO ultra-centrifugal filters (EMD Millipore). The biotinylation state of the protein was verified by LC-MS analysis. Biotinylated VEGF-A was then captured on the surface until a resonance unit (RU) signal of about ˜400. For immobilization of VEGF-A on CM5 sensor, the surface was first activated with a mixture of N-ethyl-N′-(3-dimethylaminopropyl)carbodiimide hydrochloride and N-hydroxysuccinimide (EDC/NHS) according to the supplier instructions. VEGF-A was then diluted into coupling buffer (0.1 M Acetate Buffer, pH 5.0) and injected until the signal reached about ˜400 RU followed by a wash with 1 M ethanolamine pH 8.0 to quench remaining activated sites.
Background: SPR reads the build-up and loss of mass on a sensor chip optically.

Test [9] has as its target T2, hVEGF-A (8-109). The test is described as follows: spot phage ELISA. The protocol:
as §1
This is another data set of the same source.

In test [10] the target is T2, hVEGF-A (8-109). The test is described as follows: phage competition ELISA (clone on phage; the concentration varied on the axis is that of hVEGF (8-109)).
Test [11] addresses T2, hVEGF-A (8-109). The description is as above. The source holds these as a separate data set.

Read-outs that look alike come from different tables or passages of the source.

On to CNIMLPYWGCGRDFECLAGCVCQYYQSC (designed binder) [9.54.90.F7Y.A2G], for which, in test [1], the Cellular IC50 came to 3.01 nM and the FOLD [..] [..] TO VARIANT 9.54.90 amounted to 0.44 fold.

A word on the IC50: it is the point on the concentration scale where inhibition reaches its midpoint. A lower IC50 goes with higher potency. GCDVMQPYWGCGENFLCLAGCVCHWYNSCG (designed binder, also called L2.9.63.1) [VEGF_CKP9.63.1]: the “Cellular IC50” value in test [2] turned out to be 0.49 nM. Moreover, in [3], the ELISA came to 2 and the “S/N vs BSA” value came out at 25.2. In [4], the IC50 is 0.4 nM.

Turning to GCDVMQPYWGCGESLSCLAGCVCHWYNSCG (designed binder, also called L2.9.63.69) [VEGF_CKP9.63.69], in test [2], the “Cellular IC50” value amounted to 26.4 nM. Also, in test [3], the ELISA was found to be 2.9 and the “S/N vs BSA” value was 23.7. Moreover, the IC50 in test [4] was determined as 2.1 nM.

For the molecule GCRTPWEPHDITCKQDSDCLAGCVCGPNGFCG (designed binder) [VEGF_CKP11], in test [3], the ELISA was 4.1 and the “S/N vs BSA” value was 57.5. For the same molecule, in test [5], the IC50 was found to be 80000 nM.

With GCVTPWKPHWINCKQDSDCLAGCVCGPNGFCG (designed binder) [VEGF_CKP13], in test [3], the ELISA came out at 3.5 and the “S/N vs BSA” value is 56.3. Moreover, the IC50 in test [5] came out at 80000 nM.

With GCTTPWPPHEIMCKQDSDCLAGCVCGPNGFCG (designed binder) [VEGF_CKP12], in [3], the ELISA is 3.5 and the “S/N vs BSA” value was 55.2. The IC50 in test [5] was 60000 nM.

In the case of GCNLMLPFWGCKQDSDCLAGCVCRWYHSCG (designed binder) [VEGF_CKP9.20], in [6], the IC50 amounted to 1340 nM.

Consider GCDVMQPYWGCGRDMDCLAGCVCHWYNSCG (designed binder, also called L2.9.63.27) [VEGF_CKP9.63.27], for which the “Cellular IC50” value in test [2] was 5.28 nM. Further, in test [3], the ELISA worked out at 2.1 and the “S/N vs BSA” value was determined as 26. In test [4], this molecule yielded an IC50 of 0.3 nM.

Consider GCDVMQPYWGCEMDFDCLAGCVCHWYNSCG (designed binder, also called L2.9.63.44) [VEGF_CKP9.63.44], for which, in test [2], the “Cellular IC50” value was 2.05 nM. In test [3], the ELISA was 1.7 and the “S/N vs BSA” value worked out at 19.5. This molecule also had an IC50 in test [4] of 0.2 nM.

GCKLFEPLWGCKQDSDCLAGCVCRWYESCG (designed binder) [VEGF_CKP9.96] gave an IC50 in test [6] of 49000 nM. Further, in test [7], the ELISA was 1.2 and the “S/N vs BSA” value worked out at 18.4.

In test [1], GCNIMLPYWGCGRDFECMNQCICQYYQSCG (designed binder) [VEGF_CKP9.54.90.13.F8Y] displayed a Cellular IC50 of 2.02 nM and an FOLD [..] [..] TO VARIANT 9.54.90 of 0.67 fold.

Consider GCQISQPFWGCKQDSDCLAGCVCHFYNSCG (designed binder) [VEGF_CKP9.3], for which the IC50 in test [6] was determined as 1500 nM. Moreover, in [7], the ELISA came out at 1.6 and the “S/N vs BSA” value was 24.5.

GCPTTRFKQYCKQDSDCLAGCVCGPNGFCG (designed binder) [VEGF_CKP6]: in [3], the ELISA was 3.5 and the “S/N vs BSA” value was 51.9. This molecule also gave an IC50 in [5] of 3000 nM.

The molecule GCDRMQPLWGCKQDSDCLAGCVCLWYKSCG (designed binder) [VEGF_CKP9.4] displayed an IC50 in test [6] of 1950 nM.

With GCRDLDVKWDCKQDSDCLAGCFCQYYSSCG (designed binder) [VEGF_CKP10], in [3], the ELISA was determined as 3.2 and the “S/N vs BSA” value amounted to 43.7. In test [5], this molecule showed an IC50 of 1000 nM.

GCDPMQPFWGCKQDSDCLAGCVCRWYQSCG (designed binder) [VEGF_CKP9.59]: in [6], the IC50 is 5820 nM. In other words, the single-digit micromolar range.

By Kd is commonly meant the concentration at which binding is half-saturated. Low values mean a tighter complex, high ones a looser complex. As for GCNIMLPYWGCGQSFECLAGCVCQYYQSCG (designed binder) [VEGF_CKP9.54.1.F8Y], in test [8], the Kd was 0.78 nM.

Consider GCNIMLPFWGCGPDLQCLAGCVCQYYQSCG (designed binder) [VEGF_CKP9.54.59], for which the “Cellular IC50” value in test [2] was determined as 3.06 nM. In [3], the ELISA is 2.3 and the “S/N vs BSA” value came out at 35.4. This molecule also yielded an IC50 in [4] of 0.5 nM.

In the case of GCNIMLPFWGCGLDYDCLAGCVCQYYQSCG (designed binder) [VEGF_CKP9.54.2], the “Cellular IC50” value in [2] was 4.3 nM. In test [3], the ELISA amounted to 0.1 and the “S/N vs BSA” value was found to be 26. In test [4], this molecule showed an IC50 of 0.2 nM.

In the case of GCQDPTFNWALYCKQDSDCLAGCVCQMYQSCG (designed binder) [VEGF_CKP7], in test [9], the ELISA turned out to be 0.1 and the “S/N vs BSA” value came to 1.3. Moreover, in [3], the ELISA amounted to 3.4 and the “S/N vs BSA” value was found to be 54.5. The molecule further showed an IC50 in [5] of 12000 nM.

Consider GCDVMQPYWGCEMDFDCLAGCICHWYNSCGFS (designed binder) [9.63.44-1], for which the “IC50 (read off the curve)” value in test [10] was about 0.04 nM.

Take GCDVMQPYWGCEMDFDCLAGCICHWYNSCGWK (designed binder) [9.63.44-14 (SEQ ID NO: 532)]: the “IC50 (read off the curve)” value in [11] was about 0.07 nM.

GCDVMQPYWGCEMDFDCLAGCICHWYNSCGQV (designed binder) [9.63.44-2]: the “IC50 (read off the curve)” value in [10] is about 0.03 nM.

With GCDVMQPYWGCEMDFDCLAGCICHWYNSCGLQ (designed binder) [9.63.44-9], the “IC50 (read off the curve)” value in test [11] is about 0.03 nM.

On to GCDVMQPYWGCEMDFDCLAGCICHWYNSCGYA (designed binder) [9.63.44-3], for which, in [10], the “IC50 (read off the curve)” value is about 0.03 nM.

Turning to GCDVMQPYWGCEMDFDCLAGCICHWYNSCGPT (designed binder) [9.63.44-5], the binding result in test [10] is given as “binds”.

As for GCDVMQPYWGCEMDFDCLAGCVCHWYNSCGPL (designed binder) [9.63.44-12], the “IC50 (read off the curve)” value in test [11] was about 0.1 nM.

For GCDVMQPYWGCEMDFDCLAGCVCHWYNSCGGI (designed binder) [9.63.44-7], the “IC50 (read off the curve)” value in test [10] is about 0.03 nM.

For GCDVMQPYWGCEMDFDCLAGCVCHWYNSCGDL (designed binder) [9.63.44-11], the binding result in test [11] is on record as “binds”.

Turning to GCDVMQPYWGCEMDFDCLAGCICHWYNSCGTS (designed binder) [9.63.44-8], the “IC50 (read off the curve)” value in test [11] was about 0.02 nM.

GCDVMQPYWGCEMDFDCLAGCVCHWYNSCGQF (designed binder) [9.63.44-13]: the “IC50 (read off the curve)” value in [11] is about 0.3 nM.

For the molecule GCDVMQPYWGCEMDFDCLAGCVCHWYNSCGSM (designed binder) [9.63.44-6], the binding result in test [10] is given as “binds”.

As for GCDVMQPYWGCEMDFDCLAGCICHWYNSCGSR (designed binder) [9.63.44-4], the “IC50 (read off the curve)” value in test [10] was about 0.04 nM.

On to GCDVMQPYWGCEMDFDCLVGCVCHWYNSCGDE (designed binder) [9.63.44-10], for which the “IC50 (read off the curve)” value in [11] is about 5 nM.

Consider GCNIMLPYWGCGRDFECFYECICQYYQSCG (designed binder) [VEGF_CKP9.54.90.62.F8Y], for which, in test [1], the Cellular IC50 was 1.14 nM and the FOLD [..] [..] TO VARIANT 9.54.90 was 1.18 fold.
